Test results: patent US20180258163A1 (Chugai, published 2018)
Changes are numbered by the printed parent chain.

T1: soluble human FcγRIIb (human, UniProt P31994 43-217, limits assumed)
T1 construct: soluble His-tagged form; also called hFcγRIIb
T1 sequence (looked up): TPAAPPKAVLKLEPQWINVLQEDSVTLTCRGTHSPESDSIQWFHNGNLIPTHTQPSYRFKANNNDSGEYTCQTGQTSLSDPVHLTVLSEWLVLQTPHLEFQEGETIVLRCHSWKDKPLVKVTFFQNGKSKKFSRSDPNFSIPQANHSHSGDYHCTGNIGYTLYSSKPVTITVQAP

B1: Ab1H-P600/Ab1L (antibody, human IgG1, kappa, name in EU numbering)
heavy: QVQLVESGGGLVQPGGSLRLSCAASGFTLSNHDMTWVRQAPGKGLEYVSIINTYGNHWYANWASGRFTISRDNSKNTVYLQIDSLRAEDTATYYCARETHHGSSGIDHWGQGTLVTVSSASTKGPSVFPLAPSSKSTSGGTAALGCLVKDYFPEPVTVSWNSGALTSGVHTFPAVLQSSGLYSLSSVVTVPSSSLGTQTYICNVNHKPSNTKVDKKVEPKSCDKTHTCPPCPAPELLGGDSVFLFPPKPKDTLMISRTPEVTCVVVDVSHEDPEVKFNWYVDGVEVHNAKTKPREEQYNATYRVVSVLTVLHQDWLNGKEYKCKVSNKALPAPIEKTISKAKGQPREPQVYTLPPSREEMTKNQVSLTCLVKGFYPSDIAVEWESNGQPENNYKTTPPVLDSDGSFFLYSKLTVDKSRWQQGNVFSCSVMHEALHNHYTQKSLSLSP
light: DIQMTQSPSSVSASVGDRVTITCQASESIYSGLAWYQQKPGQPPKLLIYDHSTLASGVPSRFSGSGSGTEYALTISSLQPEDFATYYCQHADYAHHSDNVFGGGTKVEIKRTVAAPSVFIFPPSDEQLKSGTASVVCLLNNFYPREAKVQWKVDNALQSGNSQESVTEQDSKDSTYSLSSTLTLSKADYEKHKVYACEVTHQGLSSPVTKSFNRGEC
notes: copies: 2 + 2
B2: Ab1H-P908/Ab1L (antibody, human IgG1, kappa, name in EU numbering)
heavy: QVQLVESGGGLVQPGGSLRLSCAASGFTLSNHDMTWVRQAPGKGLEYVSIINTYGNHWYANWASGRFTISRDNSKNTVYLQIDSLRAEDTATYYCARETHHGSSGIDHWGQGTLVTVSSASTKGPSVFPLAPSSKSTSGGTAALGCLVKDYFPEPVTVSWNSGALTSGVHTFPAVLQSSGLYSLSSVVTVPSSSLGTQTYICNVNHKPSNTKVDKKVEPKSCDKTHTCPPCPAPELLGGDSVFLFPPKPKDTLMISRTPEVTCVVVDVSHEDPEVKFNWYVDGVEVHNAKTKPREEQYNATYRVVSVLTVLHQDWLNGKEYKCKVSNKALPAPIEKTISKAKGQPREPQVYTLPPSREEMTKNQVSLTCLVKGFYPSDIAVEWESNGQPENNYKTTPPVLDSDGSFFLYSKLTVDKSRWQQGNVFSCSVMHEALHRHYTQKSLSLSP
light: B1 light
notes: copies: 2 + 2
B3: Ab1H-P841/Ab1L (antibody, human IgG1, kappa, name in EU numbering)
heavy: B2 heavy with N363R, R436N
light: B1 light
notes: copies: 2 + 2
B4: Ab1H-P854/Ab1L (antibody, name in EU numbering)
heavy: B2 heavy with R436N, L445R
light: B1 light
notes: copies: 2 + 2
B5: Ab1H-P844/Ab1L (antibody, human IgG1, kappa, name in EU numbering)
heavy: B2 heavy with E384Q, R436N
light: B1 light
notes: copies: 2 + 2
B6: Ab1H-P849/Ab1L (antibody, human IgG1, kappa, name in EU numbering)
heavy: B2 heavy with Q420R, R436N
light: B1 light
notes: copies: 2 + 2
B7: Ab1H-P910/Ab1L (antibody, human IgG1, kappa, name in EU numbering)
heavy: B2 heavy with L311R, R436N
light: B1 light
notes: copies: 2 + 2
B8: Ab1H-P837/Ab1L (antibody, human IgG1, kappa, name in EU numbering)
heavy: B2 heavy with E347R, R436N
light: B1 light
B9: Ab1H-P914/Ab1L (antibody, human IgG1, kappa, name in EU numbering)
heavy: B2 heavy with D401R, R436N
light: B1 light
notes: copies: 2 + 2
B10: Ab1H-P840/Ab1L (antibody, human IgG1, kappa, name in EU numbering)
heavy: B2 heavy with T361K, R436N
light: B1 light
notes: copies: 2 + 2
B11: Ab1H-P843/Ab1L (antibody, human IgG1, kappa, name in EU numbering)
heavy: B2 heavy with E382R, R436N
light: B1 light
notes: copies: 2 + 2
B12: Ab1H-P828/Ab1L (antibody, human IgG1, kappa, name in EU numbering)
heavy: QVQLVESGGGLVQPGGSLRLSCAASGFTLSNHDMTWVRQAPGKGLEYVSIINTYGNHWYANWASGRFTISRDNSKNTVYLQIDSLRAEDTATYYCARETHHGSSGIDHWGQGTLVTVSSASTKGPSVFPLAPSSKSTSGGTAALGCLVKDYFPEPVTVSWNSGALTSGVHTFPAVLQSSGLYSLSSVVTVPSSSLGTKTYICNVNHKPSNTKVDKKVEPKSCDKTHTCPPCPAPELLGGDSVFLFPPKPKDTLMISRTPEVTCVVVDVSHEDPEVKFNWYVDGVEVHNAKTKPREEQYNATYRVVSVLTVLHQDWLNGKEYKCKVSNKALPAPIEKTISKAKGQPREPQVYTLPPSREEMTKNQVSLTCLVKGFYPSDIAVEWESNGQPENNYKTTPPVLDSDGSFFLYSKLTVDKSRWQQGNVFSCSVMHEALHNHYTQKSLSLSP
light: B1 light
notes: copies: 2 + 2
B13: Ab1H-P846/Ab1L (antibody, human IgG1, kappa, name in EU numbering)
heavy: B2 heavy with Q388K, R436N
light: B1 light
notes: copies: 2 + 2
B14: Ab1H-P848/Ab1L (antibody, human IgG1, kappa, name in EU numbering)
heavy: B2 heavy with S417R, R436N
light: B1 light
notes: copies: 2 + 2
B15: Ab1H-P852/Ab1L (antibody, human IgG1, kappa, name in EU numbering)
heavy: B2 heavy with S426K, R436N
light: B1 light
notes: copies: 2 + 2
B16: Ab1H-P831/Ab1L (antibody, human IgG1, kappa, name in EU numbering)
heavy: B2 heavy with P389R, R436N
light: B1 light
notes: copies: 2 + 2
B17: Ab1H-P845/Ab1L (antibody, human IgG1, kappa, name in EU numbering)
heavy: B2 heavy with E384K, R436N
light: B1 light
notes: copies: 2 + 2
B18: Ab1H-P842/Ab1L (antibody, human IgG1, kappa, name in EU numbering)
heavy: B2 heavy with Q364K, R436N
light: B1 light
notes: copies: 2 + 2
B19: Ab1H-P912/Ab1L (antibody, human IgG1, kappa, name in EU numbering)
heavy: B2 heavy with T309R, R436N
light: B1 light
notes: copies: 2 + 2
B20: Ab1H-P919/Ab1L (antibody, human IgG1, kappa, name in EU numbering)
heavy: B2 heavy with P331R, R436N
light: B1 light
notes: copies: 2 + 2
B21: Ab1H-P847/Ab1L (antibody, human IgG1, kappa, name in EU numbering)
heavy: B2 heavy with N391K, R436N
light: B1 light
notes: copies: 2 + 2
B22: Ab1H-P915/Ab1L (antibody, human IgG1, kappa, name in EU numbering)
heavy: B2 heavy with S402R, R436N
light: B1 light
notes: copies: 2 + 2
B23: Ab1H-P905/Ab1L (antibody, human IgG1, kappa, name in EU numbering)
heavy: B2 heavy with N386R, R436N
light: B1 light
notes: copies: 2 + 2
B24: Ab1H-P906/Ab1L (antibody, human IgG1, kappa, name in EU numbering)
heavy: B2 heavy with G387R, R436N
light: B1 light
notes: copies: 2 + 2
B25: Ab1H-P829/Ab1L (antibody, human IgG1, kappa, name in EU numbering)
heavy: B2 heavy with S339R, R436N
light: B1 light
notes: copies: 2 + 2
B26: Ab1H-P917/Ab1L (antibody, human IgG1, kappa, name in EU numbering)
heavy: B2 heavy with A329R, R436N
light: B1 light
notes: copies: 2 + 2
B27: Ab1H-P909/Ab1L (antibody, human IgG1, kappa, name in EU numbering)
heavy: B2 heavy with R436N, H437R
light: B1 light
notes: copies: 2 + 2
B28: Ab1H-P918/Ab1L (antibody, human IgG1, kappa, name in EU numbering)
heavy: B2 heavy with L330R, R436N
light: B1 light
notes: copies: 2 + 2
B29: Ab1H-P850/Ab1L (antibody, human IgG1, kappa, name in EU numbering)
heavy: B2 heavy with Q421K, R436N
light: B1 light
notes: copies: 2 + 2
B30: Ab1H-P851/Ab1L (antibody, human IgG1, kappa, name in EU numbering)
heavy: B2 heavy with N423R, R436N
light: B1 light
notes: copies: 2 + 2

Molecular target: T1, soluble human FcγRIIb
Assay: SPR, Ab-IgE complex over captured hFcγRIIb, pH 7.4, 25C
Experimental: Fc region variant-containing antibody binding assays between soluble human FcγRIIb (a.k.a. “hFcγRIIb”) and antigen-antibody complexes were performed using BIACORE® T200 (GE Healthcare). Soluble hFcγRIIb was produced in the form of a His-tagged molecule using methods known in the art. An appropriate amount of an anti-His antibody was fixed onto Sensor chip CM5 (GE Healthcare) by the amine coupling method using a His capture kit (GE Healthcare) to capture hFcγRIIb. Next, an antibody-antigen complex and a running buffer (as a reference solution) was injected, and interaction was allowed to take place with the hFcγRIIb captured onto the sensor chip. 20 mM N-(2-Acetamido)-2-aminoethanesulfonic acid, 150 mM NaCl, 1.2 mM CaCl₂, and 0.05% (w/v) Tween 20 at pH 7.4 was used as the running buffer, and the respective buffer was also used to dilute the soluble hFcγRIIb. To regenerate the sensor chip, 10 mM glycine-HCl at pH 1.5 was used. All measurements were carried out at 25° C. Analyses were performed based on binding (RU) calculated from sensorgrains obtained by the measurements, and relative values when the binding amount of P600 was defined as 1.00 are shown. To calculate the parameters, the BIACORE® T100 Evaluation Software (GE Healthcare) was used.

| Binder | relative binding (RU), P600=1.00 [fold] |
| --- | --- |
| B1 | 1 |
| B2 | 0.42 |
| B3 | 1.86 |
| B4 | 1.93 |
| B5 | 1.24 |
| B6 | 2.21 |
| B7 | 1.73 |
| B8 | 1.88 |
| B9 | 1.72 |
| B10 | 2.25 |
| B11 | -0.04 |
| B12 | 1.27 |
| B13 | 1.71 |
| B14 | 1.38 |
| B15 | 1.4 |
| B16 | 3.85 |
| B17 | 1.38 |
| B18 | 2.37 |
| B19 | 0.24 |
| B20 | -0.06 |
| B21 | 1.57 |
| B22 | 0.85 |
| B23 | 1.34 |
| B24 | 1.74 |
| B25 | 0.17 |
| B26 | -0.05 |
| B27 | 0.73 |
| B28 | -0.06 |
| B29 | 2.22 |
| B30 | 1.43 |
